The target of assay [1] is T1, Human MCP-1 (MCAF) (human, UniProt P13500 24-99).
T1 construct: bought recombinant chemokine
The assay is described as follows: Bound chemokines (at least); screen vs control proteins.

Assay [2] deals with T2, Human SDF-1α (human, UniProt P48061-2 22-89).
T2 construct: bought recombinant chemokine; also called SDF-1 alpha
The assay is described as above.

Assay [3] addresses T3, human MIG (human, UniProt Q07325 23-125).
T3 sequence (looked up): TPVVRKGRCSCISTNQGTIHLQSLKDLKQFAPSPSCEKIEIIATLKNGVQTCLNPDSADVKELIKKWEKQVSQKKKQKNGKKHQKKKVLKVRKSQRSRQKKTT
Description: cell-based or functional assay.

The target in assay [4] is T4, human IL-8, (72 amino acids) (human, UniProt P10145 28-99).
T4 sequence (looked up): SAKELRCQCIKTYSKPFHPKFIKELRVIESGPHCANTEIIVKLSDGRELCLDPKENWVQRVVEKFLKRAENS
Description: cell-based or functional assay.

Assay [5] addresses T1, Human MCP-1 (MCAF). Description: Bound chemokines (at least); screen vs control proteins. This is another data set of the same source.
The target of assay [6] is T4, human IL-8, (72 amino acids). The description is as above.
The target in assay [7] is T5, human Eotaxin (human, UniProt P51671 24-97).
T5 construct: bought recombinant chemokine
T5 sequence (P51671 24-97 limits assumed): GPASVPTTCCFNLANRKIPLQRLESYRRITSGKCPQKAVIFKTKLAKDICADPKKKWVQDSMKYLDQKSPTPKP
The assay is described as follows: peptide-containing carriers, binding vs control proteins (FIG. 1).

In assay [8] the target is T3, human MIG. Description: Bound chemokines (at least); screen vs control proteins.
Assay [9] deals with T4, human IL-8, (72 amino acids). Described as above. The source holds these as a separate data set.
For assay [10], the target named is T5, human Eotaxin. Description: cell-based or functional assay.
For assay [11], the target named is T5, human Eotaxin. The assay is described as follows: Bound chemokines (at least); screen vs control proteins.
For assay [12], the target named is T5, human Eotaxin. Description: ELISA on chemokine-coated plates, fold over control proteins (FIG. 3). As to the method: (§1) NUNC-Immuno maxisorp plates (Cat. No. 4-42404) were coated with the appropriate chemokine (0.1 ml/well, 0.1-1.0 μg/ml in 0.1 M NaHCO₃, pH 8.6), overnight at 4° C. The plates were then blocked with 0.2 ml/well of blocking buffer (5 mg/ml BSA in 0.1 NaHCO₃). Control wells were treated with blocking buffer alone, with no addition of target protein (chemokine). The plates were washed 6 times with PBST (0.1% Tween 20 in PBS), followed by incubation for 45 minutes at room temperature with 10-fold serial dilutions of individual synthetic peptides (10 pg-10 μg) with 1% BSA (PBST-BSA)/well. After the plates were washed 6 times with PBST, the bound peptides were probed by HRP-SA Conjugate, diluted 1:10,000 to 1:20,000 in PBST-BSA, 0.1 ml/well for 45 minutes at room temperature. The target-bound synthetic peptides probed with HRP-SA were quantified by DAKO TMB one-step substrate system, followed by the addition of stop solution, HCl—H₂SO₄ mixture (0.1 ml/well) ON HCl, 3N H₂SO₄). The results were analyzed by ELISA reader at OD₄₅₀.
(§2) As discussed above, the level of binding was calculated by comparing binding of the peptides to the chemokines with peptide binding to controls. Level of control binding was defined as level 1 (up to a one-fold increase in binding). This control binding level is illustrated in the Figure as a dashed line.
Background: ELISA stands for enzyme-linked immunosorbent assay.

Assay [13] addresses T3, human MIG. Described as above. As to the method:
as §1, §2

Assay [14] has as its target T1, Human MCP-1 (MCAF). The description is as above. As to the method:
as §1, §2

In assay [15] the target is T2, Human SDF-1α. The assay is described as above. As to the method:
as §1, §2

The target of assay [16] is T4, human IL-8, (72 amino acids). The description is as above. As to the method: as §1, §2

The values that follow come from US20120028913A1 (BIOKINE THERAPEUTICS, published 2012).

Bridges are numbered along the chain shown (N, C = ends). Where no end group is shown, it is not given here. The star is where a group is joined. Biotin = O=C1N[C@H]2[C@H](CS[C@H]2CCCCC(=O)*)N1

T1 sequence (P13500 24-99 limits assumed): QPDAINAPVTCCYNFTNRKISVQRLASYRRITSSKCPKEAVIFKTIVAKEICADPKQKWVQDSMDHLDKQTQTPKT
T2 sequence (P48061 22-89 limits assumed): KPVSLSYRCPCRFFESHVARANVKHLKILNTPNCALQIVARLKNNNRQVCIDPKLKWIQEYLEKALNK

B1: BKT-P53 (peptide)
peptide: YATQHNWRLKHE
As for B1, in the assay with Human MCP-1 (MCAF) [1], the binding result is “binds”.

B2: BKT-P56 (peptide)
peptide: CHHNLSWEC
modifications: not fully specified (bridges); cysteine pairing not given here
Turning to B2, the binding result with Human SDF-1α [2] is given as “binds”.

B3: BKT-P45 (peptide)
peptide: HHFHLPKLRPPVGGGSK(Biotin)G
Take B3: the “Level of Antagonistic Effect (T cell arrest under laminar flow on VCAM-1 plus chemokine)” value (“Level of Antagonistic Effect” below) in the assay with human MIG [3] came out at 20%; in assay [4] it was 100%.

B4: BKT-P27 (peptide)
peptide: GDFNSGHHTTTR
As for B4, the binding result with Human MCP-1 (MCAF) [5] was “binds”.

B5: BKT-P52 (peptide)
peptide: WSAHIVPYSHKP
Take B5: the binding result in the assay with Human MCP-1 (MCAF) [1] is recorded as “binds”.

B6: BKT-P37 (peptide)
peptide: LLADTTHHRPWP
notes: the carrier is not described
Turning to B6, in [6], the binding result is reported as “binds”.

B7: BKT-P48 (peptide)
peptide: ACHASLKHRC
modifications: not fully specified (bridges); cysteine pairing not given here
Turning to B7, the binding result with Human MCP-1 (MCAF) [1] is “binds”.

B8: BKT-P22/38 (peptide)
peptide: LGFDPTSTRFYT
notes: the carrier is not described; also called BKT-P38
Turning to B8, the binding result in the assay with human Eotaxin [7] is listed as “binds”.

B9: BKT-P50 (peptide)
peptide: CAHLSPHKC
modifications: not fully specified (bridges); cysteine pairing not given here
In the case of B9, the binding result with human MIG [8] was “binds”.

B10: BKT-P44 (peptide)
peptide: AHSLKSITNHGL
In the case of B10, in the assay with Human MCP-1 (MCAF) [1], the binding result was “binds”.

B11: BKT-P40 (peptide)
peptide: SAISDHRAHRSH
Consider B11, for which the binding result in assay [9] is recorded as “binds”.

B12: BKT-P47 (peptide)
peptide: TRLVPSRYYHHP
For the molecule B12, in the assay with Human MCP-1 (MCAF) [5], the binding result is reported as “binds”.

B13: BKT-P39 (peptide)
peptide: SAGHIHEAHRPLGGGSK(Biotin)G
For B13, the “Level of Antagonistic Effect” value with human Eotaxin [10] was 100%.

B14: BKT-P34 (peptide)
peptide: SVQTRPLFHSHF
As for B14, in the assay with human Eotaxin [11], the binding result was “binds”.

B15: BKT-P49 (peptide)
peptide: HSACHASLKHRC
modifications: not fully specified (bridges); cysteine pairing not given here
For the molecule B15, in the assay with Human MCP-1 (MCAF) [1], the binding result is recorded as “binds”.

B16: BKT-P26 (peptide)
peptide: VHTSLLQKHPLP
On to B16, for which the binding result with Human MCP-1 (MCAF) [1] is given as “binds”.

B17: BKT-P33 (peptide)
peptide: GVHKHFYSRWLG
In the case of B17, the binding result with human Eotaxin [11] was “binds”.

B18: BKT-P46 (peptide)
peptide: LDYPIPQTVLHH
For B18, the binding result with Human MCP-1 (MCAF) [5] is given as “binds”.

B19: BKT-P55 (peptide)
peptide: HHTWDTRIWQAF
B19: the binding result in the assay with Human MCP-1 (MCAF) [5] is “binds”.

B20: BKT-P18 (peptide)
peptide: ACKESATYFCGGGSK(Biotin)G
modifications: disulfide 2-10 (inferred)
notes: general synthetic cyclic format applied; also called control peptide
Consider B20, for which the binding result (with human Eotaxin [12]; with human MIG [13]; with Human MCP-1 (MCAF) [14]; with Human SDF-1α [15]; in assay [16]) was “no binding” each time.

B21: BKT-P2 (peptide)
peptide: SIPSHSIHSAKAGGGSK(Biotin)G
Take B21: in the assay with human MIG [3], the “Level of Antagonistic Effect” value turned out to be 50%.

B22: BKT-P51 (peptide)
peptide: ESDLTHALHWLG
B22: the binding result with Human MCP-1 (MCAF) [1] is “binds”.
